Assay results published in patent publication US20190077860A1 (EISAI R AND D MANAGEMENT, published 2019).

Tests used:
Assay in all cases: ELISA
[1] = biological target: T1, human EphA1 extracellular region-SEAP-His protein (human, UniProt P21709 26-547)
T1 construct: extracellular domain; also called hEphA1-SEAP-His
T1 sequence (looked up): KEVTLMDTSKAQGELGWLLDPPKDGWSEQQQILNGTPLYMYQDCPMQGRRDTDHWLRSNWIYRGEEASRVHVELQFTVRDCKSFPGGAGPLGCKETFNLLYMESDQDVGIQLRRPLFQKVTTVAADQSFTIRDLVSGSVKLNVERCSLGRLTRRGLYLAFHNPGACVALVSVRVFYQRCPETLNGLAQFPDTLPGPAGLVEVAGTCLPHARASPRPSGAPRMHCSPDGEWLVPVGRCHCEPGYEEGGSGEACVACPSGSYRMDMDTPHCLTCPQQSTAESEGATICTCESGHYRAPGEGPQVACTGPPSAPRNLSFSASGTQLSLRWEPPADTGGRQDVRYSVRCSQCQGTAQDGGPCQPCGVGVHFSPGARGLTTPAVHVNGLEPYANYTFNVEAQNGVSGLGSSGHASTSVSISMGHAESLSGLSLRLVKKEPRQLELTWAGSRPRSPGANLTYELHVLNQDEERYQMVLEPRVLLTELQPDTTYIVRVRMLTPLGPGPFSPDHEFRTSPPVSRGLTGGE

[2] = biological target: T2, human EphA5 extracellular region-SEAP-His protein (human, UniProt P54756 25-573)
T2 construct: extracellular domain; also called hEphA5-SEAP-His
T2 sequence (P54756 25-573): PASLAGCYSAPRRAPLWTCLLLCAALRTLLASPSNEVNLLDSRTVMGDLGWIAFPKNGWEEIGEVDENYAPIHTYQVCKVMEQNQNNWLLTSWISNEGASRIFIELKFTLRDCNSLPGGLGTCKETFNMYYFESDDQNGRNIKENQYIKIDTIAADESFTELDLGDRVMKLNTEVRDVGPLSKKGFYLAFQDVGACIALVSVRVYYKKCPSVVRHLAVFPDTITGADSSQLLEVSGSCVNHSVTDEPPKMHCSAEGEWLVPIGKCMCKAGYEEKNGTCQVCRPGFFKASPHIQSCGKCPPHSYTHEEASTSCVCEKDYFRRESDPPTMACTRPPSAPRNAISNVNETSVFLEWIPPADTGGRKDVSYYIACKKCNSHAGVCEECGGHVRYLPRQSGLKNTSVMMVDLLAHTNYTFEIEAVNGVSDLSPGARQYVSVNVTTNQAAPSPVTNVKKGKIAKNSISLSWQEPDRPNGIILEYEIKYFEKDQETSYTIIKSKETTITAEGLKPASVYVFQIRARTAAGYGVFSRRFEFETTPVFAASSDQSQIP

[3] = biological target: T3, human EphA7 extracellular region-SEAP-His protein (human, UniProt Q15375 28-555)
T3 construct: extracellular domain; also called hEphA7-SEAP-His
T3 sequence (looked up): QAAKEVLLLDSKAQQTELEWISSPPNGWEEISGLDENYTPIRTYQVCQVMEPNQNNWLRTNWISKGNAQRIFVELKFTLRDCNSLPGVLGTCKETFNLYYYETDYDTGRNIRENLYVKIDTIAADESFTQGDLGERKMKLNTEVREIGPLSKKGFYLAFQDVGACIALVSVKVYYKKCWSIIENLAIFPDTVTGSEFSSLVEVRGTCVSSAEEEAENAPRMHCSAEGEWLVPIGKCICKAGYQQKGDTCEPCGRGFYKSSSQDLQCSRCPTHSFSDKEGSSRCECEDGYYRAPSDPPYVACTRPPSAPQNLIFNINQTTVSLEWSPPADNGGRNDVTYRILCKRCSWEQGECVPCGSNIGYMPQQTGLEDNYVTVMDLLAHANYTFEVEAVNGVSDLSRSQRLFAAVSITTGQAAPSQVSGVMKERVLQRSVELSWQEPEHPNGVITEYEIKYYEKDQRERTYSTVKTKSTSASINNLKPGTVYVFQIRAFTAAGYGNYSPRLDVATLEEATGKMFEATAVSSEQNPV

[4] = biological target: T4, human EphA8 extracellular region-SEAP-His protein (human, UniProt P29322 28-542)
T4 construct: extracellular domain; also called hEphA8-SEAP-His
T4 sequence (looked up): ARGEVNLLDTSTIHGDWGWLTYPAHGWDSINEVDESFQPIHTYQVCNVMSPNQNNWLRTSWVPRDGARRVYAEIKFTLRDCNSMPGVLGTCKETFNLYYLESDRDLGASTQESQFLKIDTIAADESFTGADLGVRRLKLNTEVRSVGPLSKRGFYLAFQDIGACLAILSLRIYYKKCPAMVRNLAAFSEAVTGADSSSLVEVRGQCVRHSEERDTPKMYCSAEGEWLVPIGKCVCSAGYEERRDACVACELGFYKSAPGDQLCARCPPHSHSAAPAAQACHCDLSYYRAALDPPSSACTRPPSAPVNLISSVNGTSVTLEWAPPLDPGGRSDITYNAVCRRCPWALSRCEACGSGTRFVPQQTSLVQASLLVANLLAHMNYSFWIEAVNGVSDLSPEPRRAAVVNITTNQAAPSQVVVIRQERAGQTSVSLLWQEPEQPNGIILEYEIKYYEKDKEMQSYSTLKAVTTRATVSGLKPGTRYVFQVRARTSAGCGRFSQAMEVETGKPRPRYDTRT

[5] = biological target: T5, human EphB3 extracellular region-SEAP-His protein (human, UniProt P54753 34-559)
T5 construct: extracellular domain; also called hEphB3-SEAP-His
T5 sequence (looked up): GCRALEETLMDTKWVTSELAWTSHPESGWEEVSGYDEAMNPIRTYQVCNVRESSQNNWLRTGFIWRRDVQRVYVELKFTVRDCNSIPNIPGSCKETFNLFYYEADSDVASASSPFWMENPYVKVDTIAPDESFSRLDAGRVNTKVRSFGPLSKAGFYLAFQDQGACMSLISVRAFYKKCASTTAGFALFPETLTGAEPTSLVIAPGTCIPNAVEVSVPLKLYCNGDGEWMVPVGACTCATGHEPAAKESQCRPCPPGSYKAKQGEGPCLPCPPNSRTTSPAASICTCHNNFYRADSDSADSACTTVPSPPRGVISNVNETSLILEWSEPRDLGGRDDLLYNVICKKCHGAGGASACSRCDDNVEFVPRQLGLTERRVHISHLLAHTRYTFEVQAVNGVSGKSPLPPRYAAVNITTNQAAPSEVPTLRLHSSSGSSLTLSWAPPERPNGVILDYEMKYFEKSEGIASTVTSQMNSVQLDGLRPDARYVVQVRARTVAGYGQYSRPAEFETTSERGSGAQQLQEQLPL

[6] = biological target: T6, human EphA4 extracellular region-SEAP-His protein (human, UniProt P54764 20-547)
T6 construct: also called hEphA4-SEAP-His
T6 sequence (P54764 20-547): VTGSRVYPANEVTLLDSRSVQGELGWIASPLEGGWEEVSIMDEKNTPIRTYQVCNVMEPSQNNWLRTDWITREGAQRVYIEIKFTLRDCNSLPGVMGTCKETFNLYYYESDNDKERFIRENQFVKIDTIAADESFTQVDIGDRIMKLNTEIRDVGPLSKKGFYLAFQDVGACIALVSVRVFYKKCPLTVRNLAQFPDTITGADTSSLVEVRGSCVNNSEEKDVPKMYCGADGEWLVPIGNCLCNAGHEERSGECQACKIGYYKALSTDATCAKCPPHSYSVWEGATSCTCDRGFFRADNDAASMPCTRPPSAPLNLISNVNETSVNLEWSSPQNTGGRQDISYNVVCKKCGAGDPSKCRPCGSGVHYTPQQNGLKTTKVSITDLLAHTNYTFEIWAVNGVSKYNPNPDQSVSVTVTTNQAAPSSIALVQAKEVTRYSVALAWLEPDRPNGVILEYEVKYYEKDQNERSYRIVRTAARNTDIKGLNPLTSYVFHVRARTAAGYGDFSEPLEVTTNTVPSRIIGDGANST

B1: humanized antibody No. 143 (antibody, human IgG2)
heavy: QIQLVQSGSELKKPGASVKVSCKASGYTFTDYSMHWVRQAPGQGLKWMGWINTETGEPTYADDFKGRFVFSLDTSVSTAYLQISSLKAEDTAVYYCARIPLYYYGSRYWYFDVWGQGTTVTVSSASTKGPSVFPLAPSSRSTSESTAALGCLVKDYFPEPVTVSWNSGALTSGVHTFPAVLQSSGLYSLSSVVTVPSSNFGTQTYTCNVDHKPSNTKVDKTVERKSCVECPPCPAPPAAAPSVFLFPPKPKDTLMISRTPEVTCVVVDVSHEDPEVQFNWYVDGVEVHNAKTKPREEQFNSTFRVVSVLTVVHQDWLNGKEYKCKVSNKGLPAPIEKTISKTKGQPREPQVYTLPPSREEMTKNQVSLTCLVKGFYPSDIAVEWESNGQPENNYKTTPPMLDSDGSFFLYSKLTVDKSRWQQGNVFSCSVMHEALHNHYTQKSLSLSPG
light: DIQMTQSPSSLSASVGDRVTITCRASENIYRNLAWYQQKPGKAPKLLVYAATNLADGVPSRFSGSGSGTDYTLTISSLQPEDFATYYCQHFWGTPWTFGQGTKVEIKRTVAAPSVFIFPPSDEQLKSGTASVVCLLNNFYPREAKVQWKVDNALQSGNSQESVTEQDSKDSTYSLSSTLTLSKADYEKHKVYACEVTHQGLSSPVTKSFNRGEC
notes: human Ig kappa; also called L1-4/HK4
- A450 as % of hEphA4-SEAP-His [1]: 6%
- A450 as % of hEphA4-SEAP-His [2]: 6.1%
- A450 as % of hEphA4-SEAP-His [3]: 5.8%
- A450 as % of hEphA4-SEAP-His [4]: 6%
- A450 as % of hEphA4-SEAP-His [5]: 5.9%
- A450 as % of hEphA4-SEAP-His [6]: 100%

B2: humanized antibody No. 144 (antibody, human IgG2)
heavy: QVQLVQSGSELKKPGASVKVSCKASGYTFTDYSMHWVRQAPGQGLEWMGWINTETGEPTYADDFKGRFVFSLDTSVSTAYLQISSLKAEDTAVYYCARIPLYYYGSRYWYFDVWGQGTTVTVSSASTKGPSVFPLAPSSRSTSESTAALGCLVKDYFPEPVTVSWNSGALTSGVHTFPAVLQSSGLYSLSSVVTVPSSNFGTQTYTCNVDHKPSNTKVDKTVERKSCVECPPCPAPPAAAPSVFLFPPKPKDTLMISRTPEVTCVVVDVSHEDPEVQFNWYVDGVEVHNAKTKPREEQFNSTFRVVSVLTVVHQDWLNGKEYKCKVSNKGLPAPIEKTISKTKGQPREPQVYTLPPSREEMTKNQVSLTCLVKGFYPSDIAVEWESNGQPENNYKTTPPMLDSDGSFFLYSKLTVDKSRWQQGNVFSCSVMHEALHNHYTQKSLSLSPG
light: DIQMTQSPSSLSASVGDRVTITCRASENIYRNLAWYQQKPGKAPQLLLYAATNLADGVPSRFSGSGSGTDYTLTISSLQPEDFATYYCQHFWGTPWTFGQGTKVEIKRTVAAPSVFIFPPSDEQLKSGTASVVCLLNNFYPREAKVQWKVDNALQSGNSQESVTEQDSKDSTYSLSSTLTLSKADYEKHKVYACEVTHQGLSSPVTKSFNRGEC
notes: human Ig kappa; also called L1-6/HK1
- A450 as % of hEphA4-SEAP-His [1]: 5.6%
- A450 as % of hEphA4-SEAP-His [2]: 5.6%
- A450 as % of hEphA4-SEAP-His [3]: 5.6%
- A450 as % of hEphA4-SEAP-His [4]: 5.8%
- A450 as % of hEphA4-SEAP-His [5]: 5.8%
- A450 as % of hEphA4-SEAP-His [6]: 100%

B3: humanized antibody No. 145 (antibody, human IgG2)
heavy: QVQLVQSGSELKKPGASVKVSCKASGYTFTDYSMHWVRQAPGQGLKWMGWINTETGEPTYADDFKGRFVFSLDTSVSTAYLQISSLKAEDTAVYYCARIPLYYYGSRYWYFDVWGQGTTVTVSSASTKGPSVFPLAPSSRSTSESTAALGCLVKDYFPEPVTVSWNSGALTSGVHTFPAVLQSSGLYSLSSVVTVPSSNFGTQTYTCNVDHKPSNTKVDKTVERKSCVECPPCPAPPAAAPSVFLFPPKPKDTLMISRTPEVTCVVVDVSHEDPEVQFNWYVDGVEVHNAKTKPREEQFNSTFRVVSVLTVVHQDWLNGKEYKCKVSNKGLPAPIEKTISKTKGQPREPQVYTLPPSREEMTKNQVSLTCLVKGFYPSDIAVEWESNGQPENNYKTTPPMLDSDGSFFLYSKLTVDKSRWQQGNVFSCSVMHEALHNHYTQKSLSLSPG
light: DIQMTQSPSSLSASVGDRVTITCRASENIYRNLAWYQQKPGKAPKLLLYAATNLADGVPSRFSGSGSGTDYTLTISSLQSEDFATYYCQHFWGTPWTFGQGTKVEIKRTVAAPSVFIFPPSDEQLKSGTASVVCLLNNFYPREAKVQWKVDNALQSGNSQESVTEQDSKDSTYSLSSTLTLSKADYEKHKVYACEVTHQGLSSPVTKSFNRGEC
notes: human Ig kappa; also called L1-5/HK2
- A450 as % of hEphA4-SEAP-His [1]: 6.7%
- A450 as % of hEphA4-SEAP-His [2]: 6.6%
- A450 as % of hEphA4-SEAP-His [3]: 6.3%
- A450 as % of hEphA4-SEAP-His [4]: 6.6%
- A450 as % of hEphA4-SEAP-His [5]: 6.7%
- A450 as % of hEphA4-SEAP-His [6]: 100%

B4: humanized antibody No. 151 (antibody, human IgG2)
heavy: QIQLVQSGSELKKPGASVKVSCKASGYTFTDYSMHWVRQAPGQGLKWMGWINTETGEPTYAQGFTGRFVFSLDTSVSTAYLQISSLKAEDTAVYYCARIPLYYYGSRYWYFDVWGQGTTVTVSSASTKGPSVFPLAPSSRSTSESTAALGCLVKDYFPEPVTVSWNSGALTSGVHTFPAVLQSSGLYSLSSVVTVPSSNFGTQTYTCNVDHKPSNTKVDKTVERKSCVECPPCPAPPAAAPSVFLFPPKPKDTLMISRTPEVTCVVVDVSHEDPEVQFNWYVDGVEVHNAKTKPREEQFNSTFRVVSVLTVVHQDWLNGKEYKCKVSNKGLPAPIEKTISKTKGQPREPQVYTLPPSREEMTKNQVSLTCLVKGFYPSDIAVEWESNGQPENNYKTTPPMLDSDGSFFLYSKLTVDKSRWQQGNVFSCSVMHEALHNHYTQKSLSLSPG
light: DIQMTQSPSSLSASVGDRVTITCRASENIYRNLAWYQQKPGKAPKLLLYAATNLADGVPSRFSGSGSGTDYTLTISSLQSEDFATYYCQHFWGTPWTFGQGTKVEIKRTVAAPSVFIFPPSDEQLKSGTASVVCLLNNFYPREAKVQWKVDNALQSGNSQESVTEQDSKDSTYSLSSTLTLSKADYEKHKVYACEVTHQGLSSPVTKSFNRGEC
notes: human Ig kappa; also called L1-5/HA4
- A450 as % of hEphA4-SEAP-His [1]: 7.1%
- A450 as % of hEphA4-SEAP-His [2]: 7%
- A450 as % of hEphA4-SEAP-His [3]: 6.8%
- A450 as % of hEphA4-SEAP-His [4]: 6.9%
- A450 as % of hEphA4-SEAP-His [5]: 7.3%
- A450 as % of hEphA4-SEAP-His [6]: 100%
